For two molecules, interaction score results are on record in publication PMC10397247.

Assay in all cases: two-hybrid library CCNG1;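 also: natural log of median RNA to DNA barcode read ratio; higher means stronger binding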
Assay [1] addresses T1, 4H3843-bA.
T1 chain: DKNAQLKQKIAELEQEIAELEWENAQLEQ

Assay [2] concerns the target T2, 4H72-bA.
T2 chain: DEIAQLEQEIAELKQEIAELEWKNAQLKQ

The target of assay [3] is T3, 4H462-bA.
T3 chain: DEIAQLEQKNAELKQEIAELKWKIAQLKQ

Assay [4] has as its target T4, 4H4001-bA.
T4 chain: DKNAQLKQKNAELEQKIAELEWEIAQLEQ

The target of assay [5] is T5, 4H3782-bA.
T5 chain: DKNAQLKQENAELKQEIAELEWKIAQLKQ

Assay [6] has as its target T6, 4H331-bA.
T6 chain: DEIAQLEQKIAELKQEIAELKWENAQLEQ

Assay [7] concerns the target T7, 4H883-bA.
T7 chain: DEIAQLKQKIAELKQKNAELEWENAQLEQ

The target of assay [8] is T8, 4H797-bA.
T8 chain: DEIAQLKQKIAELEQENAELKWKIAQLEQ

Assay [9] has as its target T9, 4H3855-bA.
T9 chain: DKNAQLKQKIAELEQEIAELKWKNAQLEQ

Assay [10] deals with T10, 4H570-bN.
T10 chain: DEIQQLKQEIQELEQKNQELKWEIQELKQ

Assay [11] deals with T11, 4H1845-bA.
T11 chain: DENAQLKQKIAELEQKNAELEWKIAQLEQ

The target of assay [12] is T12, 4H3606-bA.
T12 chain: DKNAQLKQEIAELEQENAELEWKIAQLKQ

Assay [13] deals with T13, 4H1369-bA.
T13 chain: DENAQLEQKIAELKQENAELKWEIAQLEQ

Assay [14] deals with T14, 4H1446-bA.
T14 chain: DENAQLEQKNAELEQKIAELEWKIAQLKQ

The target of assay [15] is T15, 4H2576-bA.
T15 chain: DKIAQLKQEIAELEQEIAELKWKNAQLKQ

Assay [16] deals with T16, 4H607-bA.
T16 chain: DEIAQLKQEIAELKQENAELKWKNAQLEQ

The target of assay [17] is T17, 4H370-bA.
T17 chain: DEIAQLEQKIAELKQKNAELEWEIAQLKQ

Assay [18] concerns the target T18, 4H2610-bA.
T18 chain: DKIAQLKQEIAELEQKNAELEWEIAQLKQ

In assay [19] the target is T19, 4H953-bA.
T19 chain: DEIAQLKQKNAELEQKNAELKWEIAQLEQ

Assay [20] has as its target T20, 4H3189-bA.
T20 chain: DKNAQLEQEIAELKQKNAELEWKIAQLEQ

Assay [21] has as its target T21, 4H568-bA.
T21 chain: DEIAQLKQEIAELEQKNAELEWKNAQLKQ

The target in assay [22] is T22, 4H687-bA.
T22 chain: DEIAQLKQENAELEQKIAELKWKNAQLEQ

The target in assay [23] is T23, 4H2697-bA.
T23 chain: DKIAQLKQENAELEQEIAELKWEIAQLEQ

Assay [24] has as its target T24, 4H2667-bA.
T24 chain: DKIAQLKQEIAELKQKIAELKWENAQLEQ

In assay [25] the target is T25, 4H918-bA.
T25 chain: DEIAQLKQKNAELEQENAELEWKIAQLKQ

The target in assay [26] is T26, 4H967-bA.
T26 chain: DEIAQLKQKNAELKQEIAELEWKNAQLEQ

In assay [27] the target is T27, P12A-bA.
T27 chain: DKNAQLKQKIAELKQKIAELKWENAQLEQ

For assay [28], the target named is T28, P3A-bA.
T28 chain: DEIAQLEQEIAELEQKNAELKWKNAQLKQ

Assay [29] concerns the target T29, P4A-bA.
T29 chain: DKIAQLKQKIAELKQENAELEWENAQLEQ

Assay [30] addresses T30, P9A-bA.
T30 chain: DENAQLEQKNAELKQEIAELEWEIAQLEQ

Assay [31] addresses T31, P5A-bA.
T31 chain: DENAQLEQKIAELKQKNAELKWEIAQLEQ

Assay [32] addresses T32, P8A-bA.
T32 chain: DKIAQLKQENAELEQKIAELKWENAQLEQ

Assay [33] has as its target T33, P1A-bA.
T33 chain: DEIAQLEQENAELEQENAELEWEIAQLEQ

Assay [34] deals with T34, P2A-bA.
T34 chain: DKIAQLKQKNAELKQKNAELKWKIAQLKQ

Assay [35] addresses T35, P6A-bA.
T35 chain: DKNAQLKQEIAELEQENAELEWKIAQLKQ

The target in assay [36] is T36, P11A-bA.
T36 chain: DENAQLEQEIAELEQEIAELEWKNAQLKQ

In assay [37] the target is T37, P7A-bA.
T37 chain: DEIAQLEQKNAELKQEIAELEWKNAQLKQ

Turning to DENAQLEQKIAELKQENAELKWEIAQLEQ [4H1369-bA], the interaction score was -0.634 in [1]; -1.2 in [2]; -0.339 in assay [3]; -0.513 in assay [4]; -0.939 in assay [5]; -0.963 in assay [6]. Besides, the interaction score in [7] was -1.53; in assay [8] it was -0.836; in assay [9], -1.08; in [10], 0.413; in assay [11] it was -1.43; in assay [12], 2.35. Moreover, the interaction score in assay [13] is -0.294; in assay [14] it was -0.956; in [15], -0.209; in [16], -1.2; in assay [17], -1.03; in [18] it was -0.708. Besides, the interaction score in [19] was -1.23; in assay [20] it was -0.843; in assay [21] it was -1.77; in assay [22] it was -0.0949; in [23], -0.782; in assay [24], -0.912. For the same molecule, the interaction score was -1.28 in [25] and -1.41 in assay [26].
On to DENAQLEQEIAELEQEIAELEWKNAQLKQ [P11A-bA], for which the interaction score in assay [27] is 1.91; in assay [28], -0.656; in assay [29], 1.83; in assay [30] it was -0.585; in assay [31], 0.849; in assay [32] it was -0.166. Besides, the interaction score is 0.307 in [33]; 1.07 in assay [34]; 0.118 in assay [35]; -1.39 in assay [36]; -1.28 in assay [37].
